The text below walks through data of the RNAGym collection of RNA variant scans (doi:10.7554/elife.80360).

To fix the notation:
B1: HDV Ribozyme (parent)
chain: GGCCGGCAUGGUCCCAGCCUCCUCGCUGGCGCCGGCUGGGCAACAUUCCGAGGGGACCGUCCCCUCGGUAAUGGCGAAUGGGACCCA

Variants of B1 are the subject of this data set. As to the kind of experiment: self-cleavage, relative activity (ratio to wild type); higher = more cleavage; co-transcriptional.
On to C30U U37A, for which the self-cleavage stood at 0.256. With C30G G59A the figure was 0.0692; with C30U G55U, 0.789; with C30A G40C, 0.0277.

With C30A G40U, the self-cleavage came to 0.183. For C30A C75U the value was 0.101; for G29U U60C, 0.

For the variant C30A U60C, the self-cleavage is 0.582. Take C30U G34C: the self-cleavage is 0.0923.

In the case of C30U G34U, the self-cleavage came to 0.135. For G29U U72C the value was 0.0811; for G29U U72A, 0.218. With C30A G31U the figure was 0.0733; with C30A G31C, 0.115. For C30A A70C the value was 0.491; for C30A A70G, 0.332; for C30A G59A, 0.561. Consider C30A G52A, for which the self-cleavage is 0.522. For C30A G52C the value was 0.58; for C30G A87U, 0.14; for C30G A87G, 0.0702. For C30U C62G the value was 0.475; for C30U C48A, 0.739. On to C30U C48G, for which the self-cleavage was determined as 0.597. Turning to C30U C48U, the self-cleavage came to 0.506. With C30U U47A the figure was 0.532. Turning to C30U U47G, the self-cleavage is 0.571. For G29U G53C the value was 0.125.

Regarding C30U C36G, the self-cleavage is 0.0941. With C30U C36A the figure was 0.193; with G31A C48A, 0.616; with C30A A87C, 0.596.

Turning to C30U C33U, the self-cleavage stood at 0.369. With C30A G80C the figure was 0.272; with C30G U69C, 0.18.

In the case of C30G U69A, the self-cleavage came to 0.148.

Consider C30G C41G, for which the self-cleavage was determined as 0.0707. Turning to C30A C36G, the self-cleavage was 0.148.

On to C30U G52A, for which the self-cleavage is 0.621.

C30G C62U: the self-cleavage was 0.185. With C30G C62A the figure was 0.122; with C30A C63U, 0.415; with C30A C63G, 0.251. As to C30U G54C, the self-cleavage stood at 0.533.

Regarding C30U G54A, the self-cleavage was 0.571. For C30G G81A, the self-cleavage is 0.0978. With C30G G81U the figure was 0.158; with C30U U69A, 0.594; with C30U U69C, 0.796. For C30A C58G the value was 0.596. For C30U G38U the value was 0.262; for C30U G38C, 0.

As for C30G U65A, the self-cleavage stood at 0.032. For C30U U65A the value was 0.689; for C30U U65G, 0.506; for C30U U65C, 0.78.

In the case of G29U G74C, the self-cleavage was 0.137.

On to C30A A43C, for which the self-cleavage came out at 0.0326. Take C30A A43G: the self-cleavage is 0.0739. With G29U U47A the figure was 0; with G29U G50C, 0.153. As for G29U G50A, the self-cleavage amounted to 0.104. Consider G29U G55U, for which the self-cleavage amounted to 0.0944.

Consider G29U G55C, for which the self-cleavage came out at 0.0692.

For the variant G29U G55A, the self-cleavage came out at 0.122.

Turning to C30U U79A, the self-cleavage was found to be 0.293.

In the case of C30G U60C, the self-cleavage came out at 0.147. For C30G C44G the value was 0.

C30G C44U: the self-cleavage is 0.0213. Take C30A G50U: the self-cleavage was determined as 0.729.

Take C30G G34A: the self-cleavage was determined as 0. For C30G G34U the value was 0.0449.

Turning to C30G G34C, the self-cleavage was determined as 0.107. For C30A C86G the value was 0.475; for C30G A70C, 0.106; for C30G C64U, 0.126.

For C30G C64G, the self-cleavage is 0.0396.

Turning to C30G C64A, the self-cleavage came out at 0.0361. With G31A C44G the figure was 0.133; with G31A C44A, 0.192; with C30A C85G, 0.509. For C30A C85U the value was 0.554; for C30A C85A, 0.295; for C30A C32A, 0.0627. With C30G C58G the figure was 0.0804; with C30G C58A, 0.0386; with C30G C58U, 0.0906. For the variant C30A A71C, the self-cleavage was 0.345. C30A A71G: the self-cleavage was determined as 0.517. With G31A C57U the figure was 0.421. For C30A C33A, the self-cleavage is 0.0615.

As for C30A C33G, the self-cleavage was found to be 0.128. With C30A C33U the figure was 0.15; with C30G A56U, 0.116. For C30G A56G the value was 0.0941; for C30G C86U, 0.0332. With C30U C49A the figure was 0.698; with C30U C49G, 0.31. Take G29U G39A: the self-cleavage stood at 0. With G29U G39U the figure was 0.111; with C30U C66G, 0.607; with C30A C64G, 0.485. For C30G C85A the value was 0.0308. For C30U G81C the value was 0.148; for C30U G81U, 0.149; for C30A G39A, 0.0489.

On to C30A G39C, for which the self-cleavage turned out to be 0.157.

For G31A C41A, the self-cleavage worked out at 0.273. With G31A C41G the figure was 0.106. For G31A C41U the value was 0.269; for G31A C62U, 0.554. With G31A C62A the figure was 0.445. In the case of G31A C62G, the self-cleavage stood at 0.317.

For the variant C30A A83G, the self-cleavage turned out to be 0.127. For C30A A83C the value was 0.0811. With C30A A42C the figure was 0.14.

For the variant C30A A42U, the self-cleavage was 0.241.

As for G29U G59U, the self-cleavage was determined as 0.147. With G29U G59C the figure was 0.104. For G29U G80A the value was 0.0934; for C30G G50A, 0.0733. Regarding C30G G50U, the self-cleavage came to 0.0978. With C30G C84A the figure was 0. For C30U A42U the value was 0.0615; for C30A U46G, 0.256.

Consider C30A U46A, for which the self-cleavage came out at 0.147. For G29U U79C, the self-cleavage is 0.122.

As to G29U U79G, the self-cleavage is 0.0386. For C30U C32A the value was 0.155; for C30U C32G, 0.0652.

For G29U G76U, the self-cleavage amounted to 0.137. For G29U G76C the value was 0.12; for G31A A70C, 0.407. Regarding G31A A70U, the self-cleavage was 0.101.

As to C30U A83G, the self-cleavage stood at 0.302. For C30U A83C the value was 0.332; for C30U A83U, 0.151; for C30G C33G, 0.115. For C30G C33A the value was 0.0519; for C30U G31U, 0.0268. With C30U G31C the figure was 0.13; with C30G A42U, 0.

As for C30A G38C, the self-cleavage was 0.203. With G31A A45C the figure was 0.262; with G31A A45U, 0.185. For C30G G76U the value was 0.109. Take G29U U37A: the self-cleavage is 0.0898. For G29U U37C the value was 0.208; for C30U G50A, 0.728. For G29U G40A the value was 0.0955.

Turning to G29U G40C, the self-cleavage was 0.0583. With C30U A43C the figure was 0.158; with C30U A43G, 0.0755. For C30G C66A the value was 0.0282; for G31A C66U, 0.387. For C30A C62U the value was 0.423; for C30A A56G, 0.529; for G31A C33A, 0.0744. Regarding G31A C33G, the self-cleavage was determined as 0. For G31A C33U, the self-cleavage worked out at 0.359. In the case of C30G, the self-cleavage worked out at 0.0914. With C30U the figure was 0.746; with C30A, 0.547; with C30U G40A, 0.645. G31A A71U: the self-cleavage is 0.447. As for G31A A71C, the self-cleavage came to 0.251. With G31A A71G the figure was 0.432.
